Values of other authors, collected in US7951359B2, “Compositions and methods for therapy or prevention of chemotherapy-induced neuropathy” (Merck Serono SA, priority 2004, dated 2011).

Conditions: patients with myelodysplastic syndromes and trombocytopenia; cited from earlier work

IL-6: Recombinant human IL-6 produced in genetically engineered Chinese Hamster Ovary (CHO) cells
maximum dose tolerated: 3.75 µg/kg/day
